Test results: US20230399397A1 (EWHA UNIVERSITY INDUSTRY COLLABORATION FOUNDATION, published 2023)

Assays:
[1] = molecular target: T1, mouse OSCAR-Fc (fusion of ectodomain of mouse-derived OSCAR protein and Fc domain of human immunoglobulin … (mouse)); test: ELISA, periplasm extract of the scFv clone on coated mOSCAR-Fc
T1 construct: also called mOSCAR-Fc; mOSCAR
Method: (§1) To select anti-OSCAR antibodies via ELISA screening, first, 200 μL of SB-carbenicillin was added to each well of a 96-well microplate, and E. coli colonies obtained in the third and fourth panning processes were added thereto, followed by incubation at 37° C. for 2 hours while stirring. Using a plate replication pin tool, the cultured clones were transferred to a new microplate, IPTG was added to each well in which E. coli was cultured to a final concentration of 1 mM, followed by incubation […] while stirring. Then, the microplate was centrifuged and the supernatant discarded, and then precipitated E. coli was suspended in 40 μL of ice-cold 1× TES (20% sucrose, 50 mM Tris, 1 mM EDTA, pH 8.0) per well. Then, […] was added to each well, mixed well, and left on ice for 30 minutes, followed by centrifugation of the microplate to obtain a periplasm extract.
(§2) Subsequently, 25 μL of human and mouse OSCAR-Fc and human IgG each diluted in PBS to a concentration of 2 μg/mL were added to each well of a 96-well plate for ELISA and left to stand at 37° C. for 1 hour such that an antigen was adsorbed onto the surface of the well. […] Once a blue color was clearly developed, reaction was terminated by adding 25 μL of 1 N aqueous sulfuric acid solution to each well, and a color change signal was measured using absorbance at a wavelength of 450 nm. […]

[2] = molecular target: T2, human OSCAR-Fc (fusion of ectodomain of human-derived OSCAR protein and Fc domain of human immunoglobulin … (human)); test: ELISA, periplasm extract of the scFv clone on coated hOSCAR-Fc
T2 construct: also called hOSCAR-Fc; hOSCAR
Method: as §1, §2

[3] = molecular target: T2, human OSCAR-Fc (fusion of ectodomain of …); test: competitive ELISA, IgG premixed with OSCAR-Fc, on coated collagen
Method: (§3) Specifically, 25 μL of collagen (collagen type I from rat tail) diluted with PBS to a concentration of 2 μg/mL was added to an ELISA plate and adsorbed onto the ELISA plate by leaving to stand at 4° C. overnight. The surface onto which collagen was not adsorbed was protected by using a 3% milk powder solution. Subsequently, the purified anti-OSCAR IgG antibody and human or mouse OSCAR-Fc [fusion of ectodomain of human and mouse-derived OSCAR protein and Fc domain of human immunoglobulin gamma 1 (human IgG1)][human-derived: hOSCAR-Fc (SEQ ID NO: 4) and mouse-derived: mOSCAR-Fc (SEQ ID NO: 5)] were mixed to have concentrations of 2 μg/mL and 1 μg/mL, respectively, for 1.5 hours to bind to each other. Then, the mixture was added to the collagen-adsorbed ELISA plate from which the powdered milk solution was removed in an amount of […] and left to stand at room temperature for 1.5 hours. Subsequently, the plate was washed three times with PBST to remove unreacted antibodies and OSCAR-Fc, and 25 μL of an HRP-conjugated anti-human IgG antibody diluted at 1:3,000 was added to each well and left to stand at room temperature for 1 hour to detect OSCAR-Fc bound to collagen. […] Absorbance was measured at 450 nm to analyze the degree of OSCAR-collagen binding (FIG. 2).

[4] = molecular target: T1, mouse OSCAR-Fc (fusion of ectodomain of …); test: as above
Method: as §3

[5] = molecular target: T1, mouse OSCAR-Fc (fusion of ectodomain of …); test: bio-layer interferometry (Octet), antibody as ligand on the sensor, mOSCAR as analyte
[6] = molecular target: T2, human OSCAR-Fc (fusion of ectodomain of …); test: serial dilution ELISA, 4-parameter logistic curve fit
[7] = molecular target: T2, human OSCAR-Fc (fusion of ectodomain of …); test: BLI (Octet); BLI (Octet); mother clone D11
Method: Therefore, based on intensities of the ELISA signals, expression levels, stability, and activity of the clones whose affinity was matured from the clone D11, D11-B9 was selected, and relative affinity thereof to OSCAR was re-evaluated by way of serial dilution. […] To measure a dissociation constant more accurately, analysis was performed by measuring bio-layer interferometry (BLI) signals using an Octet device. […] In the same manner as in the serial dilution ELISA, the clone D11 seems to have a lower affinity to hOSCAR. A dissociation constant was about 5.6 nM, and a lower response signal was measured (FIG. 10).

[8] = molecular target: T2, human OSCAR-Fc (fusion of ectodomain of …); test: bio-layer interferometry (Octet), antibody as ligand on the sensor, hOSCAR as analyte
[9] = molecular target: T2, human OSCAR-Fc (fusion of ectodomain of …); test: BLI (Octet); BLI (Octet); hOSCAR
[10] = molecular target: T2, human OSCAR-Fc (fusion of ectodomain of …); test: serial dilution ELISA (re-evaluation); re-evaluation by serial dilution (FIG. 10); hOSCAR
[11] = molecular target: T1, mouse OSCAR-Fc (fusion of ectodomain of …); test: BLI (Octet); BLI (Octet); mOSCAR
[12] = molecular target: T2, human OSCAR-Fc (fusion of ectodomain of …); test: BLI (Octet)
[13] = molecular target: T1, mouse OSCAR-Fc (fusion of ectodomain of …); test: BLI (Octet)
[14] = molecular target: T2, human OSCAR-Fc (fusion of ectodomain of …); test: serial dilution ELISA, 4-parameter logistic curve fit; first serial dilution ELISA of the IgG clones (FIG. 9)
Method: Next, the EC₅₀ values of the clones were calculated using a 4-parameter logistic curve fit from serial dilution ELISA.

[15] = molecular target: T1, mouse OSCAR-Fc (fusion of ectodomain of …); test: serial dilution ELISA (re-evaluation); re-evaluation by serial dilution (FIG. 10); mOSCAR

B1: anti-OSCAR scFv B4 (scFv, V domains shown)
VH: EVQLLESGGGLVQPGGSLRLSCAASGFTFSDYAMSWVRQAPGKGLEWVSGIYHGGGNIYYADSVKGRFTISRDNSKNTLYLQMNSLRAEDTAVYYCARAPDEFDYWGQGTLVTVSS
VL: QSVLTQPPSASGTPGQRVTISCSGSSSNIGNNSVTWYQQLPGTAPKLLIYYNSHRPSGVPDRFSGSKPGTSASLAISGLRSEDEADYYCGAWDSSLNGYVFGGGTKLTVL
notes: Single-chain Fv; Tested as periplasm extract
[1]
  binding result: binds
[2]
  binding result: binds

B2: anti-OSCAR antibody B4 (IgG) (antibody, V domains shown)
VH: B1 VH
VL: QSVLTQPPSASGTPGQRVTISCSGSSSNIGNNSVTWYQQLPGTAPKLLIYYNSHRPSGVPDRFSGSKPGTSASLAISGLRSEDEADYYCGAWDSSLNGYVFGGGTKLTVLG
notes: also called clone antibody B4
[3]
  binding result: binds
[4]
  binding result: binds

B3: anti-OSCAR antibody D11 (IgG) (antibody, V domains shown)
VH: EVQLLESGGGLVQPGGSLRLSCAASGFTFSDYYWTWVRQAPGKGLEWVSGSPVFGAANYAQNFQGRFTISRDNSKNTLYLQMNSLRAEDTAVYYCAKAGFTGGHFDIWGQGTLVTVSS
VL: QSVLTQPPSASGTPGQRVTISCSGSSSNIGNNYVSWYQQLPGTAPKLLIYGNSNRPSGVPNRFSGSKSGTSASLAISGLRSEDEADYYCQSYDSSSWLFGGGTKLTVLG
notes: also called clone D11; mother-clone D11
[5]
  Kd: 2.87 nM
[6]
  EC50: 520 nM
[7]
  Kd: ~5.6 nM
[8]
  Kd: 5.61 nM

B4: anti-OSCAR antibody D11-B9 (IgG) (antibody, V domains shown)
VH: EVQLLESGGGLVQPGGSLRLSCAASGFTFSDYYWTWVRQAPGKGLEWVSGSPVFGAANYAQNFQGRFTISRDNSKNTLYLQMNSLRAEDTAVYYCAKAGIPGHFDIWGQGTLVTVSS
VL: B3 VL
notes: also called clone D11-B9; D11-69 (misprint in the text)
[9]
  Kd: 0.4 nM
[10]
  EC50: 36.8 nM
[11]
  Kd: 0.2 nM
[12]
  fold affinity against clone D11: 10 times
[13]
  fold affinity against clone D11: ≥ 10 times
[14]
  EC50: 1.5 nM
[5]
  Kd: 0.222 nM
[15]
  EC50: 36.8 nM
[8]
  Kd: 0.41 nM
